Measured values taken from patent publication US20150246136A1 (Bayer, published 2015).
Several values for one entry are separate records, joined by “and”; a condition that tells them apart may be missing. Equal entries are not always repeated.

Target: Mesothelin (SwissProt reference Q13421-3) (Homo sapiens, UniProt Q13421 37-622)
Assay: cell-based or functional assay

IC50 (nM), HT29 meso+ cells, MTT proliferation assay | Binder
0.17 nM | Example 56, conjugate of anti-mesothelin antibody MF-Ta (antibody, human IgG1, lambda, V domains shown, toxophore-linker on Cys sulfur, sites not given) VH: QVELVQSGAEVKKPGESLKISCKGSGYSFTSYWIGWVRQAPGKGLEWMGIIDPGDSRTRYSPSFQGQVTISADKSISTAYLQWSSLKASDTAMYYCARGQLYGGTYMDGWGQGTLVTVSS VL: DIALTQPASVSGSPGQSITISCTGTSSDIGGYNSVSWYQQHPGKAPKLMIYGVNNRPSGVSNRFSGSKSGNTASLTISGLQAEDEADYYCSSYDIESATPVFGGGTKLTVLG
9 nM | Example 74, conjugate of anti-mesothelin antibody MF-Ta (antibody, human IgG1, lambda, V domains shown, toxophore-linker on Cys sulfur, sites not given) VH: QVELVQSGAEVKKPGESLKISCKGSGYSFTSYWIGWVRQAPGKGLEWMGIIDPGDSRTRYSPSFQGQVTISADKSISTAYLQWSSLKASDTAMYYCARGQLYGGTYMDGWGQGTLVTVSS VL: DIALTQPASVSGSPGQSITISCTGTSSDIGGYNSVSWYQQHPGKAPKLMIYGVNNRPSGVSNRFSGSKSGNTASLTISGLQAEDEADYYCSSYDIESATPVFGGGTKLTVLG
0.019 nM | Example 61, conjugate of anti-mesothelin antibody MF-Ta (antibody, human IgG1, lambda, V domains shown, toxophore-linker on Cys sulfur, sites not given) VH: QVELVQSGAEVKKPGESLKISCKGSGYSFTSYWIGWVRQAPGKGLEWMGIIDPGDSRTRYSPSFQGQVTISADKSISTAYLQWSSLKASDTAMYYCARGQLYGGTYMDGWGQGTLVTVSS VL: DIALTQPASVSGSPGQSITISCTGTSSDIGGYNSVSWYQQHPGKAPKLMIYGVNNRPSGVSNRFSGSKSGNTASLTISGLQAEDEADYYCSSYDIESATPVFGGGTKLTVLG
0.6 nM | Example 71, conjugate of anti-mesothelin antibody MF-Ta (antibody, human IgG1, lambda, V domains shown, toxophore-linker on Cys sulfur, sites not given) VH: QVELVQSGAEVKKPGESLKISCKGSGYSFTSYWIGWVRQAPGKGLEWMGIIDPGDSRTRYSPSFQGQVTISADKSISTAYLQWSSLKASDTAMYYCARGQLYGGTYMDGWGQGTLVTVSS VL: DIALTQPASVSGSPGQSITISCTGTSSDIGGYNSVSWYQQHPGKAPKLMIYGVNNRPSGVSNRFSGSKSGNTASLTISGLQAEDEADYYCSSYDIESATPVFGGGTKLTVLG
2 nM | Example 68, conjugate of anti-mesothelin antibody MF-Ta (antibody, human IgG1, lambda, V domains shown, toxophore-linker on Cys sulfur, sites not given) VH: QVELVQSGAEVKKPGESLKISCKGSGYSFTSYWIGWVRQAPGKGLEWMGIIDPGDSRTRYSPSFQGQVTISADKSISTAYLQWSSLKASDTAMYYCARGQLYGGTYMDGWGQGTLVTVSS VL: DIALTQPASVSGSPGQSITISCTGTSSDIGGYNSVSWYQQHPGKAPKLMIYGVNNRPSGVSNRFSGSKSGNTASLTISGLQAEDEADYYCSSYDIESATPVFGGGTKLTVLG
5 nM | Example 58, conjugate of anti-mesothelin antibody MF-Ta (antibody, human IgG1, lambda, V domains shown, toxophore-linker on Lys NH, sites not given) VH: QVELVQSGAEVKKPGESLKISCKGSGYSFTSYWIGWVRQAPGKGLEWMGIIDPGDSRTRYSPSFQGQVTISADKSISTAYLQWSSLKASDTAMYYCARGQLYGGTYMDGWGQGTLVTVSS VL: DIALTQPASVSGSPGQSITISCTGTSSDIGGYNSVSWYQQHPGKAPKLMIYGVNNRPSGVSNRFSGSKSGNTASLTISGLQAEDEADYYCSSYDIESATPVFGGGTKLTVLG
0.35 nM | Example 76, conjugate of anti-mesothelin antibody MF-Ta (antibody, human IgG1, lambda, V domains shown, toxophore-linker on Cys sulfur, sites not given) VH: QVELVQSGAEVKKPGESLKISCKGSGYSFTSYWIGWVRQAPGKGLEWMGIIDPGDSRTRYSPSFQGQVTISADKSISTAYLQWSSLKASDTAMYYCARGQLYGGTYMDGWGQGTLVTVSS VL: DIALTQPASVSGSPGQSITISCTGTSSDIGGYNSVSWYQQHPGKAPKLMIYGVNNRPSGVSNRFSGSKSGNTASLTISGLQAEDEADYYCSSYDIESATPVFGGGTKLTVLG
0.07 nM | Example 69, conjugate of anti-mesothelin antibody MF-Ta (antibody, human IgG1, lambda, V domains shown, toxophore-linker on Cys sulfur, sites not given) VH: QVELVQSGAEVKKPGESLKISCKGSGYSFTSYWIGWVRQAPGKGLEWMGIIDPGDSRTRYSPSFQGQVTISADKSISTAYLQWSSLKASDTAMYYCARGQLYGGTYMDGWGQGTLVTVSS VL: DIALTQPASVSGSPGQSITISCTGTSSDIGGYNSVSWYQQHPGKAPKLMIYGVNNRPSGVSNRFSGSKSGNTASLTISGLQAEDEADYYCSSYDIESATPVFGGGTKLTVLG
0.4 nM | Example 57, conjugate of anti-mesothelin antibody MF-Ta (antibody, human IgG1, lambda, V domains shown, toxophore-linker on Cys sulfur, sites not given) VH: QVELVQSGAEVKKPGESLKISCKGSGYSFTSYWIGWVRQAPGKGLEWMGIIDPGDSRTRYSPSFQGQVTISADKSISTAYLQWSSLKASDTAMYYCARGQLYGGTYMDGWGQGTLVTVSS VL: DIALTQPASVSGSPGQSITISCTGTSSDIGGYNSVSWYQQHPGKAPKLMIYGVNNRPSGVSNRFSGSKSGNTASLTISGLQAEDEADYYCSSYDIESATPVFGGGTKLTVLG
0.06 nM and 0.16 nM | Example 60, conjugate of anti-mesothelin antibody MF-Ta (antibody, human IgG1, lambda, V domains shown, toxophore-linker on Cys sulfur, sites not given) VH: QVELVQSGAEVKKPGESLKISCKGSGYSFTSYWIGWVRQAPGKGLEWMGIIDPGDSRTRYSPSFQGQVTISADKSISTAYLQWSSLKASDTAMYYCARGQLYGGTYMDGWGQGTLVTVSS VL: DIALTQPASVSGSPGQSITISCTGTSSDIGGYNSVSWYQQHPGKAPKLMIYGVNNRPSGVSNRFSGSKSGNTASLTISGLQAEDEADYYCSSYDIESATPVFGGGTKLTVLG
20 nM | Example 62, conjugate of anti-mesothelin antibody MF-Ta (antibody, human IgG1, lambda, V domains shown, toxophore-linker on Cys sulfur, sites not given) VH: QVELVQSGAEVKKPGESLKISCKGSGYSFTSYWIGWVRQAPGKGLEWMGIIDPGDSRTRYSPSFQGQVTISADKSISTAYLQWSSLKASDTAMYYCARGQLYGGTYMDGWGQGTLVTVSS VL: DIALTQPASVSGSPGQSITISCTGTSSDIGGYNSVSWYQQHPGKAPKLMIYGVNNRPSGVSNRFSGSKSGNTASLTISGLQAEDEADYYCSSYDIESATPVFGGGTKLTVLG
0.14 nM | Example 65, conjugate of anti-mesothelin antibody MF-Ta (antibody, human IgG1, lambda, V domains shown, toxophore-linker on Cys sulfur, sites not given) VH: QVELVQSGAEVKKPGESLKISCKGSGYSFTSYWIGWVRQAPGKGLEWMGIIDPGDSRTRYSPSFQGQVTISADKSISTAYLQWSSLKASDTAMYYCARGQLYGGTYMDGWGQGTLVTVSS VL: DIALTQPASVSGSPGQSITISCTGTSSDIGGYNSVSWYQQHPGKAPKLMIYGVNNRPSGVSNRFSGSKSGNTASLTISGLQAEDEADYYCSSYDIESATPVFGGGTKLTVLG
0.05 nM | Example 72, conjugate of anti-mesothelin antibody MF-Ta (antibody, human IgG1, lambda, V domains shown, toxophore-linker on Cys sulfur, sites not given) VH: QVELVQSGAEVKKPGESLKISCKGSGYSFTSYWIGWVRQAPGKGLEWMGIIDPGDSRTRYSPSFQGQVTISADKSISTAYLQWSSLKASDTAMYYCARGQLYGGTYMDGWGQGTLVTVSS VL: DIALTQPASVSGSPGQSITISCTGTSSDIGGYNSVSWYQQHPGKAPKLMIYGVNNRPSGVSNRFSGSKSGNTASLTISGLQAEDEADYYCSSYDIESATPVFGGGTKLTVLG
25 nM | Example 73, conjugate of anti-mesothelin antibody MF-Ta (antibody, human IgG1, lambda, V domains shown, toxophore-linker on Cys sulfur, sites not given) VH: QVELVQSGAEVKKPGESLKISCKGSGYSFTSYWIGWVRQAPGKGLEWMGIIDPGDSRTRYSPSFQGQVTISADKSISTAYLQWSSLKASDTAMYYCARGQLYGGTYMDGWGQGTLVTVSS VL: DIALTQPASVSGSPGQSITISCTGTSSDIGGYNSVSWYQQHPGKAPKLMIYGVNNRPSGVSNRFSGSKSGNTASLTISGLQAEDEADYYCSSYDIESATPVFGGGTKLTVLG
0.015 nM | Example 67, conjugate of anti-mesothelin antibody MF-Ta (antibody, human IgG1, lambda, V domains shown, toxophore-linker on Cys sulfur, sites not given) VH: QVELVQSGAEVKKPGESLKISCKGSGYSFTSYWIGWVRQAPGKGLEWMGIIDPGDSRTRYSPSFQGQVTISADKSISTAYLQWSSLKASDTAMYYCARGQLYGGTYMDGWGQGTLVTVSS VL: DIALTQPASVSGSPGQSITISCTGTSSDIGGYNSVSWYQQHPGKAPKLMIYGVNNRPSGVSNRFSGSKSGNTASLTISGLQAEDEADYYCSSYDIESATPVFGGGTKLTVLG
1.5 nM | Example 66, conjugate of anti-mesothelin antibody MF-Ta (antibody, human IgG1, lambda, V domains shown, toxophore-linker on Cys sulfur, sites not given) VH: QVELVQSGAEVKKPGESLKISCKGSGYSFTSYWIGWVRQAPGKGLEWMGIIDPGDSRTRYSPSFQGQVTISADKSISTAYLQWSSLKASDTAMYYCARGQLYGGTYMDGWGQGTLVTVSS VL: DIALTQPASVSGSPGQSITISCTGTSSDIGGYNSVSWYQQHPGKAPKLMIYGVNNRPSGVSNRFSGSKSGNTASLTISGLQAEDEADYYCSSYDIESATPVFGGGTKLTVLG
0.2 nM | Example 75, conjugate of anti-mesothelin antibody MF-Ta (antibody, human IgG1, lambda, V domains shown, toxophore-linker on Lys NH, sites not given) VH: QVELVQSGAEVKKPGESLKISCKGSGYSFTSYWIGWVRQAPGKGLEWMGIIDPGDSRTRYSPSFQGQVTISADKSISTAYLQWSSLKASDTAMYYCARGQLYGGTYMDGWGQGTLVTVSS VL: DIALTQPASVSGSPGQSITISCTGTSSDIGGYNSVSWYQQHPGKAPKLMIYGVNNRPSGVSNRFSGSKSGNTASLTISGLQAEDEADYYCSSYDIESATPVFGGGTKLTVLG
0.11 nM | Example 64, conjugate of anti-mesothelin antibody MF-Ta (antibody, human IgG1, lambda, V domains shown, toxophore-linker on Cys sulfur, sites not given) VH: QVELVQSGAEVKKPGESLKISCKGSGYSFTSYWIGWVRQAPGKGLEWMGIIDPGDSRTRYSPSFQGQVTISADKSISTAYLQWSSLKASDTAMYYCARGQLYGGTYMDGWGQGTLVTVSS VL: DIALTQPASVSGSPGQSITISCTGTSSDIGGYNSVSWYQQHPGKAPKLMIYGVNNRPSGVSNRFSGSKSGNTASLTISGLQAEDEADYYCSSYDIESATPVFGGGTKLTVLG
1 nM | Example 59, conjugate of anti-mesothelin antibody MF-Ta (antibody, human IgG1, lambda, V domains shown, toxophore-linker on Lys NH, sites not given) VH: QVELVQSGAEVKKPGESLKISCKGSGYSFTSYWIGWVRQAPGKGLEWMGIIDPGDSRTRYSPSFQGQVTISADKSISTAYLQWSSLKASDTAMYYCARGQLYGGTYMDGWGQGTLVTVSS VL: DIALTQPASVSGSPGQSITISCTGTSSDIGGYNSVSWYQQHPGKAPKLMIYGVNNRPSGVSNRFSGSKSGNTASLTISGLQAEDEADYYCSSYDIESATPVFGGGTKLTVLG
0.02 nM | Example 70, conjugate of anti-mesothelin antibody MF-Ta (antibody, human IgG1, lambda, V domains shown, toxophore-linker on Cys sulfur, sites not given) VH: QVELVQSGAEVKKPGESLKISCKGSGYSFTSYWIGWVRQAPGKGLEWMGIIDPGDSRTRYSPSFQGQVTISADKSISTAYLQWSSLKASDTAMYYCARGQLYGGTYMDGWGQGTLVTVSS VL: DIALTQPASVSGSPGQSITISCTGTSSDIGGYNSVSWYQQHPGKAPKLMIYGVNNRPSGVSNRFSGSKSGNTASLTISGLQAEDEADYYCSSYDIESATPVFGGGTKLTVLG
0.03 nM | Example 63, conjugate of anti-mesothelin antibody MF-Ta (antibody, human IgG1, lambda, V domains shown, toxophore-linker on Cys sulfur, sites not given) VH: QVELVQSGAEVKKPGESLKISCKGSGYSFTSYWIGWVRQAPGKGLEWMGIIDPGDSRTRYSPSFQGQVTISADKSISTAYLQWSSLKASDTAMYYCARGQLYGGTYMDGWGQGTLVTVSS VL: DIALTQPASVSGSPGQSITISCTGTSSDIGGYNSVSWYQQHPGKAPKLMIYGVNNRPSGVSNRFSGSKSGNTASLTISGLQAEDEADYYCSSYDIESATPVFGGGTKLTVLG
